Data as given in patent US9057727B2, “Screening methods using G-protein coupled receptors and related compositions” (The General Hospital Corporation, priority 2007, dated 2015).
Ends that are not written are not given here. Peptide text beside a SMILES is read from it.

Key:
[1] = tested on: LLCPK1-B64 cells or SaOS-2 cells; assay: cAMP screen of substituted PTHrP(1-28) analogs (% parent); format: cell-based; settings: parent PTHrP(1-28)NH
Description: Alanine substitution at position 18, 22, 25 and 26 increased activity in at least one cell type. These positions were further substituted to various types of amino acids, and cAMP activity was analyzed in LLCPK1-B64 cells (FIG. 27C) or SaOS-2 cells (FIG. 27D). Cells were treated with analogs at 3×10^−9M in the presence of IBMX for 30 minutes at room temperature. Responses for each analog were normalized to the response for the parent (native) PTHrP(1-28) peptide. Alanine substitutions were A^15 to A^17 (SEQ ID NO:152-154), A^18 (SEQ ID NO:34), A^19 to A^21 (SEQ ID NO:155-157), A^22 (SEQ ID NO:39), A^23 to A^25 (SEQ ID NO:158-160), A^26 (SEQ ID NO:46), and A^27 to A^28 (SEQ ID NO:161-162). Substitutions at position 18 were A^18 (SEQ ID NO: 34), G^18 (SEQ ID NO:163), S^18 (SEQ ID NO:35), M^18 (SEQ ID NO:36), L^18 (SEQ ID NO:164), F^18 (SEQ ID NO:37), N^18 (SEQ ID NO:165), E^18 (SEQ ID NO:38), and K^18 (SEQ ID NO:166). Substitutions at position 22 were A^22 (SEQ ID NO:39), G^22 (SEQ ID NO:167), and S^22 to K^22 (SEQ ID NO:40-45). Substitutions at position 26 were A^26 (SEQ ID NO:46), G^26 (SEQ ID NO:168), S^26 (SEQ ID NO:47), L^26 (SEQ ID NO:169), N^26 (SEQ ID NO:48), W^26 to E^26 (SEQ ID NO:170-171), and K^26 to R^26 (SEQ ID NO:49-50). Substitutions at position 25 were G^25 to S^25 (SEQ ID NO:172-173), L^25 (SEQ ID NO:51), N^25 (SEQ ID NO:174), W^25 (SEQ ID NO:52), E^25 (SEQ ID NO:175), and K^25 to R^25 (SEQ ID NO:53-54). […]

[2] = biological target: T1, human PTHR, G protein-uncoupled conformation (R^0) (Homo sapiens, UniProt Q03431); assay: Competition binding to R0 conformation of hPTHR (COS-7 membranes, GTPγS, 125I-PTH(1-34) tracer); settings: for screen human PIR R0 (% parent): parent PTHrP(1-28)NH; for R0/RG ratio: human PTH receptor on COS-7 cell membranes
T1 construct: expressed in transfected cells; host or cells: COS-7, transient (Fugene-6)
T1 sequence (Q03431 27-593): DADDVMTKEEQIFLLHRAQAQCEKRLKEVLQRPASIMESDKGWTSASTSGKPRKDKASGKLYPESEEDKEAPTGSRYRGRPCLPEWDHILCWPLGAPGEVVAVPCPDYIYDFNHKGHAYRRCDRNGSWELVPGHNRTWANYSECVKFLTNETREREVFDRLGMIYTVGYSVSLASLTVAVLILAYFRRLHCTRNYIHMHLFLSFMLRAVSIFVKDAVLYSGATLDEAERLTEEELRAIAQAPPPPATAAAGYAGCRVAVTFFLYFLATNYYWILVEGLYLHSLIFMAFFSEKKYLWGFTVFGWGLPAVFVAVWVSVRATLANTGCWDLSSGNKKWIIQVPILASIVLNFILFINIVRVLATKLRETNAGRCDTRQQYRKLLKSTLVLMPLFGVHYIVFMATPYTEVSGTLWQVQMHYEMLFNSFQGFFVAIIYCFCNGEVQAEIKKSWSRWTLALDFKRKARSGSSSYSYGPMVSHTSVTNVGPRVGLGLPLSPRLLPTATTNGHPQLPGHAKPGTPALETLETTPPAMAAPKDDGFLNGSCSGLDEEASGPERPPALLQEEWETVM
Description: Membranes were prepared from COS-7 cells transfected with the hPTHR alone. GTPγS ([…]) was added to the binding reactions so as to functionally uncouple receptor-heterotrimeric G protein complexes, thus enriching for the R^0 (and R) conformations, relative to RG.
Reactions contained a total membrane protein concentration of 20 to 100 μg/mL, and a total radioactivity concentration of approximately 150,000 cpm/ml. Unlabeled peptide ligands and/or GTPγS (Sigma-Aldrich Inc. St. Louis, Mo.) were added to the reactions as indicated.
Membranes, tracer radioligand, and various concentrations of unlabeled ligands and/or GTPγS were incubated in the wells for 90 minutes, following which, the reaction plates were processed by rapid vacuum filtration to separate bound from free radioligand, as described above. […] For both radioligands, the non-specific binding was determined in reactions containing a saturating concentration of the unlabeled analog of the radioligand. The specifically bound radioactivity was calculated as a percent of the radioactivity specifically bound in the absence of a competing ligand or GTPγS.
To assess the capacities of various unlabeled peptide ligands to bind to the G protein-uncoupled and G protein-coupled PTHR conformations (R^0 and RG, respectively), membranes were prepared from transiently transfected COS-7 cells and the following assay conditions.

[3] = biological target: T2, human PTHR, G protein-coupled conformation (RG) (Homo sapiens, UniProt Q03431); assay: Competition binding to RG conformation of hPTHR (COS-7 membranes, GαsND, 125I-[Aib1,3,M]PTH(1-15) tracer); settings: parent PTHrP(1-28)NH
T2 construct: expressed in transfected cells; host or cells: COS-7, transient (Fugene-6); membranes
T2 sequence (Q03431 27-593): T1 sequence (Q03431 27-593)

Compound	screen cAMP (% parent) [1] [% parent]	screen human PIR R0 (% parent) [2] [% parent]	screen human PIR RG (% parent) [3] [% parent]	R0/RG ratio [2]	IC50 ([2]; Table 4, human PTH1 receptor, read-out: R0 binding IC50) [nM]	R0:RG ([2]; Table 5, fold weaker affinity for R0 than RG)
E18,L22,K26-PTHrP(1-28) (AVSEHQLLHDKGKSIQDERRRLFLHKLI-NH2) [E18, L22, K26-PTHrP(1-28)NH]	264	64.4	152			
A18,26,S22-PTHrP(1-28) (AVSEHQLLHDKGKSIQDARRRSFLHALI-NH2) [A18, 26, S22-PTHrP(1-28)NH]	229	133	148			
A18,N22,K26-PTHrP(1-28) (AVSEHQLLHDKGKSIQDARRRNFLHKLI-NH2) [A18, N22, K26-PTHrP(1-28)NH]	326	139	172			
A18,22,26-PTHrP(1-28) (AVSEHQLLHDKGKSIQDARRRAFLHALI-NH2) [A18, 22, 26-PTHrP(1-28)NH]	343	160	167			
A18,26,W22-PTHrP(1-28) (AVSEHQLLHDKGKSIQDARRRWFLHALI-NH2) [A18, 26, W22-PTHrP(1-28)NH]	188	126	120			
A18,L22,K26-PTHrP(1-28) (AVSEHQLLHDKGKSIQDARRRLFLHKLI-NH2) [A18, L22, K26-PTHrP(1-28)NH]	350	160	177			
A18,26,L22-PTHrP(1-28) (AVSEHQLLHDKGKSIQDARRRLFLHALI-NH2) [A18, 26, L22-PTHrP(1-28)NH]	252	133	163			
CC[C@H](C)[C@H](NC(=O)[C@H](CCC(=O)O)NC(=O)[C@H](C)NC(=O)[C@@H](NC(=O)[C@H](C)N)C(C)C)C(=O)N[C@@H](CCC(N)=O)C(=O)N[C@@H](CC(C)C)C(=O)N[C@@H](CCSC)C(=O)N[C@@H](Cc1c[nH]cn1)C(=O)N[C@@H](CCC(N)=O)C(=O)N[C@@H](CCCNC(=N)N)C(=O)N[C@@H](C)C(=O)N[C@@H](CCCCN)C(=O)N[C@@H](Cc1c[nH]c2ccccc12)C(=O)N[C@@H](CC(C)C)C(=O)N[C@@H](CC(N)=O)C(=O)N[C@@H](CO)C(=O)N[C@@H](CCSC)C(=O)N[C@@H](CCCNC(=N)N)C(=O)N[C@@H](C)C(=O)N[C@H](C(=O)N[C@@H](CCC(=O)O)C(=O)N[C@@H](Cc1c[nH]c2ccccc12)C(=O)N[C@@H](CC(C)C)C(=O)N[C@@H](CCCNC(=N)N)C(=O)N[C@@H](CCCCN)C(=O)N[C@@H](CCCCN)C(=O)N[C@@H](CC(C)C)C(=O)N[C@@H](CCC(N)=O)C(=O)N[C@@H](CC(=O)O)C(=O)N[C@H](C(=O)N[C@@H](Cc1c[nH]cn1)C(=O)N[C@@H](CC(N)=O)C(=O)N[C@@H](Cc1ccccc1)C(=O)O)C(C)C)C(C)C [A20,Mc-PTH(1-34)OH, A^20,Mc-PTH(1-34)OH] (H-AVAEIQLMHQRAKWLNSMRAVEWLRKKLQDVHNF-OH; N-terminus assumed)				80		
E18,K22,26-PTHrP(1-28) (AVSEHQLLHDKGKSIQDERRRKFLHKLI-NH2) [E18, K22, 26-PTHrP(1-28)NH]	374	119.8	208			
E18,W22,K26-PTHrP(1-28) (AVSEHQLLHDKGKSIQDERRRWFLHKLI-NH2) [E18, W22, K26-PTHrP(1-28)NH]	165	46.6	149			
CC[C@H](C)[C@H](NC(=O)[C@H](CCC(=O)O)NC(=O)[C@H](C)NC(=O)[C@@H](NC(=O)[C@H](C)N)C(C)C)C(=O)N[C@@H](CCC(N)=O)C(=O)N[C@@H](CC(C)C)C(=O)N[C@@H](CCSC)C(=O)N[C@@H](Cc1c[nH]cn1)C(=O)N[C@@H](CCC(N)=O)C(=O)N[C@@H](CCCNC(=N)N)C(=O)N[C@@H](C)C(=O)N[C@@H](CCCCN)C(=O)N[C@@H](Cc1c[nH]c2ccccc12)C(=O)N[C@@H](CC(C)C)C(=O)N[C@@H](CC(N)=O)C(=O)N[C@@H](CO)C(=O)N[C@@H](CCSC)C(=O)N[C@@H](CCCNC(=N)N)C(=O)N[C@@H](CCCNC(=N)N)C(=O)N[C@H](C(=O)N[C@@H](CCC(=O)O)C(=O)N[C@@H](Cc1ccccc1)C(=O)N[C@@H](CC(C)C)C(=O)N[C@@H](CCCNC(=N)N)C(=O)N[C@@H](CCCCN)C(=O)N[C@@H](CCCCN)C(=O)N[C@@H](CC(C)C)C(=O)N[C@@H](CCC(N)=O)C(=O)N[C@@H](CC(=O)O)C(=O)N[C@H](C(=O)N[C@@H](Cc1c[nH]cn1)C(=O)N[C@@H](CC(N)=O)C(=O)N[C@@H](Cc1ccccc1)C(=O)O)C(C)C)C(C)C [F23,Mc-PTH(1-34)OH, F^23,Mc-PTH(1-34)OH] (H-AVAEIQLMHQRAKWLNSMRRVEFLRKKLQDVHNF-OH; N-terminus assumed)				5	1.2 ± 0.4	
E18,K22,A26-PTHrP(1-28) (AVSEHQLLHDKGKSIQDERRRKFLHALI-NH2) [E18, K22, A26-PTHrP(1-28)NH]	315	106.1	192			
CSCC[C@H](NC(=O)[C@H](CC(C)C)NC(=O)[C@H](CCC(N)=O)NC(=O)[C@H](Cc1c[nH]cn1)NC(=O)[C@H](CCC(=O)O)NC(=O)[C@H](CO)NC(=O)[C@@H](NC(=O)[C@H](C)N)C(C)C)C(=O)N[C@@H](Cc1c[nH]cn1)C(=O)N[C@@H](CC(N)=O)C(=O)N[C@@H](CC(C)C)C(=O)NCC(=O)N[C@@H](CCCCN)C(=O)N[C@@H](Cc1c[nH]cn1)C(=O)N[C@@H](CC(C)C)C(=O)N[C@@H](C)C(=O)N[C@@H](CO)C(=O)N[C@H](C(=O)N[C@@H](CCC(=O)O)C(=O)N[C@@H](CCCNC(=N)N)C(=O)N[C@@H](CCSC)C(=O)N[C@@H](CCC(N)=O)C(=O)N[C@@H](Cc1c[nH]c2ccccc12)C(=O)N[C@@H](CC(C)C)C(=O)N[C@@H](CCCNC(=N)N)C(=O)N[C@@H](CCCCN)C(=O)N[C@@H](CCCCN)C(=O)N[C@@H](CC(C)C)C(=O)N[C@@H](CCC(N)=O)C(=O)N[C@@H](CC(=O)O)C(=O)N[C@H](C(=O)N[C@@H](Cc1c[nH]cn1)C(=O)N[C@@H](CC(N)=O)C(=O)N[C@@H](Cc1ccccc1)C(N)=O)C(C)C)C(C)C [[His^5]rPTH(1-34)NH2] (H-AVSEHQLMHNLGKHLASVERMQWLRKKLQDVHNF-NH2; N-terminus assumed)						138
